Experimental findings from paper PMC7987009 (bioRxiv, 2021) are described below.

The target in this test is SARS-CoV-2 spike receptor-binding domain (RBD), wild type (SARS-CoV-2, Wuhan-Hu-1 (wild type), UniProt P0DTC2). Put plainly: cryo-EM structure.

B1: Nb21 (VHH)
VHH: QVQLVESGGGLVQAGGSLRLSCAVSGLGAHRVGWFRRAPGKEREFVAAIGANGGNTNYLDSVKGRFTISRDNAKNTIYLQMNSLKPQDTAVYYCAARDIETAEYTYWGQGTQVTVSS
With B1, the binding result is given as “binds”.

B2: Nb17 (VHH)
VHH: HVQLVESGGGLVQAGGSLRLSCAASGSIFSSNAMSWYRQAPGKQRELVASITSGGNADYADSVKGRFTISRDKNTVYPEMSSLKPADTAVYYCHAVGQEASAYAPRAYWGQGTQVTVSS
With B2, the binding result is on record as “binds”.

B3: Nb36 (VHH)
VHH: VQLVESGGGLVQAGGSLTLTCAASGRTFSSETMDMGWFRQAPGKEREFVAADSWNDGSTYYADSVKGRFTISRDSAKNTLYLQMNSLKPEDTAVYYCAAETYSIYEKDDSWGYWGQGTQVTVS
For B3, the binding result is reported as “binds”.
